According to article PMC12819142, “Atomic models of the Toxoplasma cell invasion machinery” (Nature Structural & Molecular Biology, 2025):

Assays:
[1] = target: the molecule itself; experiment: cryo-EM structure; intraconoidal microtubule ICMT-1, native, from isolated T. gondii conoids; single-particle analysis, 3.3 Å
[2] = target: the molecule itself; experiment: cryo-EM structure; conoid fibers (CF), native, from isolated T. gondii conoids after sonication and α-chymotrypsin; single-particle analysis, 2.9 Å (8-nm repeat) and 3.1 Å (24-nm repeat)

Row | Protein | stoichiometry N [1] | stoichiometry N [2]
1 | ICMAP2 (natural protein, source: endogenous, isolated conoids of T. gondii tachyzoites (CHAPS lysis, sonication, α-chymotrypsin)) MVTFKSGEVDEHHESFLRREPRSPSRSPSAVQSSWKPVCYIEEIDSLTTFPSSASCDSSSKTKSSRSLISTSLDQPRDSASSSSEPRQSGLLHVNAQDLSPSRPPESLYQTGYVRSPSSFDGTLSCVGEKTGVVRGKSGHPPLSFRSPRMQSVAHSEDRDRKGLTYSFDAYPPEVFSRWKGRSRTGESCGLVTSSRGRSPCSRSPPGRSFPRCVDPQTDRIEEASQNCLPQSSELHASEVLGPADPAACPTQKPTVEPDSSVAASVFCPGTQAESQQVPSLPTDAFSGGDPVRSQVGSKRSHLLEDIQGKTRCSAARAVIDFDASGIRSVVVSDLGGTPLRLSPYLDTLPRSNHPLVLSKAATSVPPYCSSSSENFSEARQGGESRLTGGAAPEGGKLKASAVLGGNPQPRSCPSGGTQAMGGKYQAEESPTRSVFRGKVTVPAAEVHTTQAAGCPSERKVGEFRCQTDTDTLRHFRKSLRSYSDSPKRPETNSLNQGRSGSSRIIGQLSDATFGCRDSMASVRGAFAPPTSTVSKSLRHDEAVLREQGIKVRQKDAIFLKGVEKRHLGMQAGRQDSKPRYGLESAASCNATGAGEDPSPGFRIAGRASSSICAGGSSGESMNSAFMRGLPGSASNVRLPQWMRDYGVEDPSLQTDGCSRNVVSTRHPGTCQYSSADARRPRMRVSAGAPANLTPYLWDENSDRDGDNSLEDISCGPPYRGEMTYSITHSGNSGNQLSSQLPPAPLSVPGDVGSFGFPVAHFVCSNCGATAVPPQCPTCGAVIVQFDGTTQIPVAYRTNGTDALGLASRAVLRNGDSRSVQFSGEADPQSRSYAPYDASPSRSRGPSASRRSHVHSSRQERRELSRGEAETERCTAGTARRSGMVAVTAKKSGPPSRQRLVASSGPSLPSTKKLASQVWGSPRVCAILCSFLGLPQLLTIRRCSKNLLVAAQFEMRYVLYGTLQQLLREEETSKKATSSRPKSCEPPSARNREGRGRTLTPGVASTASARDRSLPACPFNAQTLTRLLELSPAELTALKNGQLPDRRVADAKTPRPEELRARASRLRRLHAERVEEQRRRVSARTSGKRVDREATEPVLVGLDEEMQLRREMQLQHEEELLMRERRLQQQECELFKKQQEIWLQETQQRLRQNITRNGRPHFAVPEPAALSGAGASFPCAHPGGWQKRHVGFDDDLVKGPEIDYESEPPSFRRLRHSFLKLWNYNEAQFKAALYRHAFSSFPAYNYDTTAILCRCIYQLCADATSALPLNSILMLLTDRQSYLWRRMARLSGYVICSFTLNGCRREIGPSMPTTIQRVVPIPLDDGCWDGGRSRGSHRATPSRGRGGASRVGREFGDDSSEDPIPPFCWKEGIRGAVLESIELKLAKLSEEFIDEFVLYGRQQGLLLQLQGADSTVNGRLLATTLRRFCKQPEDRYVLMDLYEWLAAAMTFSQKCIKAKIEAAKRASPSPQCRIARPCTGRLQAFPPYERSEGRYGGRSTTPAFGSSVRGRSGCPGRVETPGATSAMTRGRSIARVSMGARRGVVEDSVHSIAYENALSSRTKSRERHADTPTRSRLVLRGNRAADFQRPVRGRSPDSSANHTGVFGRRSDGKLSTQSGVRSSSASRSRLTNQVSSGLTAREAAALCRLLQNQGKILEEVKQILNNMSAPGRRHTRVP | 2 | 
2 | ICMT-associated protein 1 (ICMAP1) (natural protein, source: endogenous, isolated conoids of T. gondii tachyzoites (CHAPS lysis, sonication, α-chymotrypsin)) MMADLTLEPRGAGASRYLMTDLEDLDSSEGNSLVPYSRLGKSGNTDANLYSTPDMTTRYPGSRGLLRDDSRGSGGLDDPMGLPMRSLSPKDLGGRGGPRLSPAELKAQVRLRNMCGKPLRPDDVLVTRILTGEKSYWEALDEMRNLCASLTVENEKLKTGNAKATTKALEVEQKSRAEIRRLQTLQRVTRDELEMKLQDLTAENVRLRQSRDVERALQEQKVHMQKQIERLKQDSEEKGRLAAQRAREIHHLKEETQRSTDEAEALKGRVESLQAKLAEAISQKNLLLIRVKKDIRDIQDSAQQAREAVLAEKARSEQQAAEVEKHAQMQLQLHERKIRDLQQTVASEESQGEYYRRKYEEASKQLAKLKTQFDSTQNKTETDIALRERKLQELSESLNAAQKARDRSAQELNAMRSKYNILRGELEKAEQRRNHAEQEAIRAGAQVETMDVGRSTLEAKVSELQLERSGLMEKLQLAEKEVSELREAKNKIKASLDLAYQKEQFRLLEENSRIGTDLKVAQQQLDTVTRQKEQLQTDAERLRGAEEELREMQVDFLKMKTTLQLVQGRPCDNAKVVADGVVNALRAYAELKKATETQEQSMASLSQQNQALSQKANEAATLTREMLTLESENRSLNEHIASLTAELRKIGDQQTALQLEKEAQDEAFRQQIERVQKEAEARRRELDHQLEQAKERHRQETTKLTAELDRVKKLHDAEKKRTSELQVQVEDVKAEATQHTEGLEKRYQEQLRERNAQIEALSSEREEFAAETRAEIQQLKKTHADALKAARADRDKVLAERESHYQQQLEEMRTRQEQHAASQHHQRQELQQRLQQLELSFQETEANLRREVDAKAADVRSLQGQKEKLERELGAVKERLEDEQRSADRNLERVKRERQQDVERLQKELDDATRLAAEAERTAAEKIQSLETDVKNTRDQLKKANAGSEEKESLLEASKTRYADLENKHNDVVQKFNDLSEENKKLKKDLSAAADDKEAKEKQIKKLTDAQARDQQEIAAIKQKEREAIAAGDRLNAEIEKLKAEHRSAELKLKNDIDAVTTDKEAVEAKLAQVQKMHKEEAEALNSRIAQLTKEKADLEKAQRNLEEEKAALEQEKRKAASEAKVKQDLLEQKIAELQKQNQNLENGLRAAKAAGAAAAARPAPGAPGQAPPAAQAPQAGAPPAEEGGLFSWWGGGAAEAPPEAPASSAGAPAEAAPAPAAEAESSSWGWW | 2 | 
3 | SAS6L (natural protein, source: endogenous, isolated conoids of T. gondii tachyzoites (CHAPS lysis, sonication, α-chymotrypsin)) MATNFGFGGGASGCTDSVNFLAQVDTSAIDEMDPSLADGHTLVYSREVPFEIRLQETGSSLPGDVGRLEPIRVKILILGEETNPQHVRVELTSENDLFLNYTHALNEDLFRQMQERQKLMIEFGDYPSVLIKMLNSCIKEPHCFLAVLIMHTNGKARLDFIQSMEYKFIELLCLDCVQSTEEFTRRDMTFRYNALKSKLALLQARLHDIGCLLKLKSPSLLLHLQKAAQQQAHRRQQQVAAAAPIPGKLRAPGTTEGASTRFL |  | 2
4 | CF1 (natural protein, source: endogenous, isolated conoids of T. gondii tachyzoites (CHAPS lysis, sonication, α-chymotrypsin)) MQPLAREVSRLPRSGPLGPVAAKKDDKTFIPTNVRVSPGEKNDRVVKTEKIDDSTDGSGSHDGPRNLETQLEALTREVRELTLRVQEEKEMKELLNSQLNDAYEELADARSEHRVRGFAGASGARLRGVRGLPAFEARWMEPEHPTAQTAIRSQQEFELLLQEERARRHTMFEQYERHMKVMRKNHHKEKLETKKKVLSQVEFLIKKYRRLASDAVAVAKRERERVAEERKRARELAERACKNFEADLKGRTKTALEQYRRLVQEAHTAAKQEREELHNKCKELQETVDNERREFDTLIVREAEAKMAKFRASYARMKQQTEEERRQYGVMMHEIAKRVEKECAEYEEFVIRTMRDLLQSKGVEMTESGLRDFFQKKREEMRPSGEGHSSTDGLVTVKYRFQAADPEDLQ |  | 2
